Experimental data reported in paper PMC5736413 (Journal of immunology (Baltimore, Md. : 1950), 2017).

Biological target: recombinant mouse Factor H (mouse, UniProt P06909 19-1234)
Assay: SPR

recombinant mouse Factor H, sequence (P06909 19-1234): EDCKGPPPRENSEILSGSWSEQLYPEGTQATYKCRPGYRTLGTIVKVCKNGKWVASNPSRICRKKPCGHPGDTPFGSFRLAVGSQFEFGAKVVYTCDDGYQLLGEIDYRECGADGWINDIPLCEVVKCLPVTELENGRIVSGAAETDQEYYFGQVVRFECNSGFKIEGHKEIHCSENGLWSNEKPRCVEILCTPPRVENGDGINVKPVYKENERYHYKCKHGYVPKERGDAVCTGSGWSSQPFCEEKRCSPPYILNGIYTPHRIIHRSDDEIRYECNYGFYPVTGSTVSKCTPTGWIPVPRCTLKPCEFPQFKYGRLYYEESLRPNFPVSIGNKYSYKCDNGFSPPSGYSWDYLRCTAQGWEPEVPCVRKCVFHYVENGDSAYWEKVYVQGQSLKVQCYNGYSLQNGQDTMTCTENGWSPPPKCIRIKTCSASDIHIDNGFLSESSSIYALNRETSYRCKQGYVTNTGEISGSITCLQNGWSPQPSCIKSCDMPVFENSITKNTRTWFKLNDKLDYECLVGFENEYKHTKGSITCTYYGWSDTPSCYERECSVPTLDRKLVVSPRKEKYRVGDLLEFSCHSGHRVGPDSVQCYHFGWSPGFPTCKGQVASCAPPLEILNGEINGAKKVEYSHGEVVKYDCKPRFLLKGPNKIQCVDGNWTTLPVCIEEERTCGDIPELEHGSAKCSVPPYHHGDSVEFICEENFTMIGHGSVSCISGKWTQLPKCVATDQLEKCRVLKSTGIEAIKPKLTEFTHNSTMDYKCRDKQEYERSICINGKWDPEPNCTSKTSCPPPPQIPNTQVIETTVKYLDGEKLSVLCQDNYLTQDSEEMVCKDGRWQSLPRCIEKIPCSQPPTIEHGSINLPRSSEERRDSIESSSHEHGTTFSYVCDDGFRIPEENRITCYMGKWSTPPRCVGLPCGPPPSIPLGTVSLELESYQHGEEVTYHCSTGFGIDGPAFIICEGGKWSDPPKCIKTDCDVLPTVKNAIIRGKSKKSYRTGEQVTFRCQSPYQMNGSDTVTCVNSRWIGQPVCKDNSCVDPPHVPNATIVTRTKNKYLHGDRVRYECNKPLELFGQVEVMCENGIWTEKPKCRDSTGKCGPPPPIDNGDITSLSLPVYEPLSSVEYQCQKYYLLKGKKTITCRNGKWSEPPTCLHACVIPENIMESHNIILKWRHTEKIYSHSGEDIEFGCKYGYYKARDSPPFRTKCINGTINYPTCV

Kd: 3.85 µM
B1: recombinant mouse C3d (C1010A) (domain or fragment)
chain: not shown
